Measured values published in IntAct's records for PubMed 23108047.

B1: Coiled-coil domain-containing protein 6 (Homo sapiens), Q16204 (parent)
chain: MADSASESDTDGAGGNSSSSAAMQSSCSSTSGGGGGGGGGGGGGKSGGIVISPFRLEELTNRLASLQQENKVLKIELETYKLKCKALQEENRDLRKASVTIQARAEQEEEFISNTLFKKIQALQKEKETLAVNYEKEEEFLTNELSRKLMQLQHEKAELEQHLEQEQEFQVNKLMKKIKKLENDTISKQLTLEQLRREKIDLENTLEQEQEALVNRLWKRMDKLEAEKRILQEKLDQPVSAPPSPRDISMEIDSPENMMRHIRFLKNEVERLKKQLRAAQLQHSEKMAQYLEEERHMREENLRLQRKLQREMERREALCRQLSESESSLEMDDERYFNEMSAQGLRPRTVSSPIPYTPSPSSSRPISPGLSYASHTVGFTPPTSLTRAGMSYYNSPGLHVQHMGTSHGITRPSPRRSNSPDKFKRPTPPPSPNTQTPVQPPPPPPPPPMQPTVPSAATSQPTPSQHSAHPSSQP

Tests used:
Conditions in all cases: with fbxw7_human FBXW7, Q969H0
[1] = variants of: B1
[2] = variants of: B1; remark: listed apart in the source
[3] = variants of: B1; remark: listed apart in the source
[4] = variants of: B1; remark: listed apart in the source
[5] = variants of: B1; remark: listed apart in the source

fbxw7_human FBXW7, Q969H0, sequence (Q969H0 whole entry): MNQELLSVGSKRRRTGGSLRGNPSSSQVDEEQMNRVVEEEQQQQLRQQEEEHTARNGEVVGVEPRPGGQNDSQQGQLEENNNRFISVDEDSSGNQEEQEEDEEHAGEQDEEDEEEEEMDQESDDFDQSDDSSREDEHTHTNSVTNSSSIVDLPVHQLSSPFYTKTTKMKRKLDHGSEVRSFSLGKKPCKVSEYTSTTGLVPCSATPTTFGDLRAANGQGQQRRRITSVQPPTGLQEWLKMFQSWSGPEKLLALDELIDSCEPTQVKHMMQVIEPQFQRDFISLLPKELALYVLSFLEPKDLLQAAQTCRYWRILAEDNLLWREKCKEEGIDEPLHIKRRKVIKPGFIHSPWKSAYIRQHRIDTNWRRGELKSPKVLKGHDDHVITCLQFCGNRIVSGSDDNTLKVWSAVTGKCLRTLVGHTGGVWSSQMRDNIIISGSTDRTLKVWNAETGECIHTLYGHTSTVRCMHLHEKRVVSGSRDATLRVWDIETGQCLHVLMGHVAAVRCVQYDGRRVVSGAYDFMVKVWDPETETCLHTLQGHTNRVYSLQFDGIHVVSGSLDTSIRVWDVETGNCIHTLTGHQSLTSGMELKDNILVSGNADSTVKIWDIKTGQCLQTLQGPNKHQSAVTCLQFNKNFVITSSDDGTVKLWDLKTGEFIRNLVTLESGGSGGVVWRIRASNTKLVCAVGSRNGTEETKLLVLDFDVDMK

## MADSASESDTDGAGGNSSSSAAMQSSCSSTSGGGGGGGGGGGGGKSGGIVISPFRLEELTNRLASLQQENKVLKIELETYKLKCKALQEENRDLRKASVTIQARAEQEEEFISNTLFKKIQALQKEKETLAVNYEKEEEFLTNELSRKLMQLQHEKAELEQHLEQEQEFQVNKLMKKIKKLENDTISKQLTLEQLRREKIDLENTLEQEQEALVNRLWKRMDKLEAEKRILQEKLDQPVSAPPSPRDISMEIDSPENMMRHIRFLKNEVERLKKQLRAAQLQHSEKMAQYLEEERHMREENLRLQRKLQREMERREALCRQLSESESSLEMDDERYFNEMSAQGLRPRTVSSPIPYTPSPSSSRPISPGLSYASHTVGFTPPTSLTRAGMSYYNSPGLHVQHMGTSHGITRPSPRRSNSPDKFKRPAPPPSPNTQTPVQPPPPPPPPPMQPTVPSAATSQPTPSQHSAHPSSQP [T427A]
[1]
  effect of a mutation on the interaction: disrupting interaction
[2]
  effect of a mutation on the interaction: decreasing interaction

## MADSASESDTDGAGGNSSSSAAMQSSCSSTSGGGGGGGGGGGGGKSGGIVISPFRLEELTNRLASLQQENKVLKIELETYKLKCKALQEENRDLRKASVTIQARAEQEEEFISNTLFKKIQALQKEKETLAVNYEKEEEFLTNELSRKLMQLQHEKAELEQHLEQEQEFQVNKLMKKIKKLENDTISKQLTLEQLRREKIDLENTLEQEQEALVNRLWKRMDKLEAEKRILQEKLDQPVSAPPSPRDISMEIDSPENMMRHIRFLKNEVERLKKQLRAAQLQHSEKMAQYLEEERHMREENLRLQRKLQREMERREALCRQLSESESSLEMDDERYFNEMSAQGLRPRTVSSPIPYTPSPSSSRPISPGLSYASHTVGFTPPTSLTRAGMSYYNSPGLHVQHMGTSHGITRPAPRRSNSPDKFKRPTPPPSPNTQTPVQPPPPPPPPPMQPTVPSAATSQPTPSQHSAHPSSQP [S413A]
[1]
  effect of a mutation on the interaction: disrupting interaction
[3]
  effect of a mutation on the interaction: decreasing interaction

## MADSASESDTDGAGGNSSSSAAMQSSCSSTSGGGGGGGGGGGGGKSGGIVISPFRLEELTNRLASLQQENKVLKIELETYKLKCKALQEENRDLRKASVTIQARAEQEEEFISNTLFKKIQALQKEKETLAVNYEKEEEFLTNELSRKLMQLQHEKAELEQHLEQEQEFQVNKLMKKIKKLENDTISKQLTLEQLRREKIDLENTLEQEQEALVNRLWKRMDKLEAEKRILQEKLDQPVSAPPSPRDISMEIDSPENMMRHIRFLKNEVERLKKQLRAAQLQHSEKMAQYLEEERHMREENLRLQRKLQREMERREALCRQLSESESSLEMDDERYFNEMSAQGLRPRTVSSPIPYTPAPSSSRPISPGLSYASHTVGFTPPTSLTRAGMSYYNSPGLHVQHMGTSHGITRPSPRRSNSPDKFKRPTPPPSPNTQTPVQPPPPPPPPPMQPTVPSAATSQPTPSQHSAHPSSQP [S359A]
[1]
  effect of a mutation on the interaction: disrupting interaction
[4]
  effect of a mutation on the interaction: decreasing interaction

## MADSASESDTDGAGGNSSSSAAMQSSCSSTSGGGGGGGGGGGGGKSGGIVISPFRLEELTNRLASLQQENKVLKIELETYKLKCKALQEENRDLRKASVTIQARAEQEEEFISNTLFKKIQALQKEKETLAVNYEKEEEFLTNELSRKLMQLQHEKAELEQHLEQEQEFQVNKLMKKIKKLENDTISKQLTLEQLRREKIDLENTLEQEQEALVNRLWKRMDKLEAEKRILQEKLDQPVSAPPSPRDISMEIDSPENMMRHIRFLKNEVERLKKQLRAAQLQHSEKMAQYLEEERHMREENLRLQRKLQREMERREALCRQLSESESSLEMDDERYFNEMSAQGLRPRTVSSPIPYTPSPSSSRPISPGLSYASHTVGFTPPTSLTRAGMSYYNSPGLHVQHMGTSHGITRPSPRRSNSPDKFKRPTPPPSPNAQTPVQPPPPPPPPPMQPTVPSAATSQPTPSQHSAHPSSQP [T434A]
[5]
  effect of a mutation on the interaction: disrupting interaction
